In US20100260748A1 (published 2010):

Assays:
[1] = molecular target: T1, human FcRH5 expressed on stably transfected cells (BJAB.huFcRH5, OPM2.huFcRH5) (human, UniProt Q96RD9 16-977); assay: FACS (0.1, 1.0, 10 ug/mL ADC) on OPM2 cells stably expressing human FcRH5
T1 construct: also called OPM2-FcRH5; BJAB-FcRH5
T1 chain: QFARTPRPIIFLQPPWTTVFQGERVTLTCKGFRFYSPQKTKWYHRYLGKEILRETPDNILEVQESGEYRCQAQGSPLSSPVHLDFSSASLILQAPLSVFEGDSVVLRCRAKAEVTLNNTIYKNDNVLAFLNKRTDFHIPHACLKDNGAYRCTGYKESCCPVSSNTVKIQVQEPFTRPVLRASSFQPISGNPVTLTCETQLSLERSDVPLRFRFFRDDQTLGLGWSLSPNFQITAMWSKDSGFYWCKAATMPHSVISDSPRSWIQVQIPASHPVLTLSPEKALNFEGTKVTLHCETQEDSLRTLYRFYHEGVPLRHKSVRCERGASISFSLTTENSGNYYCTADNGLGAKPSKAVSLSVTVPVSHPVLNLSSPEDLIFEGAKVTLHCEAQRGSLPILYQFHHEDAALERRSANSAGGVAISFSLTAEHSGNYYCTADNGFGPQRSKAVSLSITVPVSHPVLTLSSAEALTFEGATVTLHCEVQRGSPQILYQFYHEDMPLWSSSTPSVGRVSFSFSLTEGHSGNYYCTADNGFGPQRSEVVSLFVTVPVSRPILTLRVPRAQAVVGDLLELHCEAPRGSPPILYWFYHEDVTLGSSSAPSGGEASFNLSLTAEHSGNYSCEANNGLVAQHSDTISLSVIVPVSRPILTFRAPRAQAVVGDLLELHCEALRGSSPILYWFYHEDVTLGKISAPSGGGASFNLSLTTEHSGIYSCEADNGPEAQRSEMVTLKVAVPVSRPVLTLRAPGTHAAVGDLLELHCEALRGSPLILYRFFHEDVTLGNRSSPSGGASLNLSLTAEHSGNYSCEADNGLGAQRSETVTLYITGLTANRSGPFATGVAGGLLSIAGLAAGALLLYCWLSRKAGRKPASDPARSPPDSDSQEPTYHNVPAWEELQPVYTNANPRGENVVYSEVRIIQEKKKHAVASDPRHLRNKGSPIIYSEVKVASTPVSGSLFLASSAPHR
Experimental: For FACS analysis of FcRH5 antibody drug conjugates (see Example 2), FcRH5 ADCs were added in increasing concentrations (0.1, 1.0, and 10 μg/mL) to 10⁶ OPM2 cells transfected with and stably expressing human FcRH5 or SVT2 cells transfected with and stably expressing cynomolgus FcRH5 in a 100 μL reaction volume. Samples were then incubated 1 hr at […] in FACS buffer (PBS, 0.5% BSA, 0.1% sodium azide) to inhibit interalization. After washing, cells were resuspended in FACS buffer and incubated 30 min at room temperature with 20 μL mouse anti-human IgG conjugated to phycoerythrin (Ms anti-Human-PE) secondary antibody in a 100 μL reaction volume. After washing, cells were fixed in 200 μL 2% paraformaldehyde/PBS and flow cytometery performed. The same procedure was used for HuIgG, however, at only the highest concentration (10 μg/mL). The HuIgG was used as an isotype control to set baseline PMT per cell line. Flow cytomery was performed on a BD FACSCalibur® and geometric mean fluorescence intensity was recorded for each sample. Recorded data was analyzed using FlowJo v8.4.5 software (see FIGS. 20-25).

[2] = molecular target: T2, cynomolgus FcRH5 expressed on stably transfected SVT2 cells (cynomolgus monkey); assay: Scatchard analysis, 0.5 nM 125I-labelled antibody competed with the same unlabelled antibody (50 to 0.02 nM), SVT2.cyFcRH5 cells, 4 h at 4 C
T2 construct: also called cyno FcRH5; cynoFcRH5
T2 chain: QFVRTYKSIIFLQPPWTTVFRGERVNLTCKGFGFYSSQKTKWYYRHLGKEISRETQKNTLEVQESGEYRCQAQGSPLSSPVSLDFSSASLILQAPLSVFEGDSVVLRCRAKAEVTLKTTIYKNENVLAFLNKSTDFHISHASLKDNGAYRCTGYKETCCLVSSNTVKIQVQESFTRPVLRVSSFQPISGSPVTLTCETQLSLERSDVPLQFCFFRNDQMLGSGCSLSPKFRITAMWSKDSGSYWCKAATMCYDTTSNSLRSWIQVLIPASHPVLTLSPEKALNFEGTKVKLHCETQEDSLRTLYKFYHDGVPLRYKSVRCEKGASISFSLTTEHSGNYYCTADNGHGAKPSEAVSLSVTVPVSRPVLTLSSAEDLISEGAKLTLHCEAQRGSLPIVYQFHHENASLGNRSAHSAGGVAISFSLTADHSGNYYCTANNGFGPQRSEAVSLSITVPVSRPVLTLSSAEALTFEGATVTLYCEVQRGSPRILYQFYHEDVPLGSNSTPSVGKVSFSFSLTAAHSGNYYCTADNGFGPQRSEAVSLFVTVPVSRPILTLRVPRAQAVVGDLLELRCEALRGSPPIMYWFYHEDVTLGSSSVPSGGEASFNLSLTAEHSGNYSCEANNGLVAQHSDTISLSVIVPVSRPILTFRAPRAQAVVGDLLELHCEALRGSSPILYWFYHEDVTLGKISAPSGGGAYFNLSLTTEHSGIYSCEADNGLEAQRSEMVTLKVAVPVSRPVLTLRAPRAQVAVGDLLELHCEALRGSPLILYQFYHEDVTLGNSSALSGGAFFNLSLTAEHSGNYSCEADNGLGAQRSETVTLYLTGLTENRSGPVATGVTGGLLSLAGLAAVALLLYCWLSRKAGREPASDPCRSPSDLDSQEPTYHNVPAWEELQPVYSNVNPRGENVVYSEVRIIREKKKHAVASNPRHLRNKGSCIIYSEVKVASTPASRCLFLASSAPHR
Experimental: (§1) To further determine binding of the FcRH5 murine antibodies and IgG clones, binding of iodinated IgG variants to OPM2 cells expressing human FcRH5 and SVT2 cells expressing cynomologous FcRH5, Scatchard analysis was performed.
(§2) For Scatchard analysis, 0.5 nM I¹²⁵ labeled murine or IgG clone anti-FcRH5 was competed against unlabeled murine or IgG clone anti-FcRH5, respectively, ranging from 50 to 0.02 nM (12 step 1:2 serial dilution) in the presence of a transfected OPM2 line stably expressing human-FcRH5 and a transfected SVT2 line stably expressing cynomologous-FcRH5. After a four hour incubation at 4° C., cells were washed and cell pellet counts were read by a gamma counter (1470 WIZARD Automatic Gamma Counter; Perkin Elmer, Walthem, Mass.). All points were done in triplicate and counted for 10 minutes. The average CPM was used for Kd calculation using the New Ligand (Genentech, South San Francisco, Calif.) program.

[3] = molecular target: T1, human FcRH5 expressed on stably …; assay: Scatchard analysis, 0.5 nM 125I-labelled antibody competed with the same unlabelled antibody (50 to 0.02 nM), BJAB.huFcRH5 cells, 4 h at 4 C
[4] = molecular target: T1, human FcRH5 expressed on stably …; assay: Scatchard analysis, 0.5 nM 125I-labelled antibody competed with the same unlabelled antibody (50 to 0.02 nM), OPM2.huFcRH5 cells, 4 h at 4 C
Experimental: as §1, §2

Binder	binding result [1]	Kd [2] [nM]	also measured
Thio-ch10A8-HC(A118C)-MC-vc-PAB-MMAE (antibody, human IgG1, kappa, name in EU numbering, MC-vc-PAB-MMAE on the engineered Cys 118 (EU numbering), Antibody-drug conjugate of thio-ch10A8.HC) light: DIVMTQSHKFMSTSVRDRVSITCKASQDVSTAVAWYQQKPGQSPKLLIYSASYRYTGVPDRFTGSGSGTDFTFTISSVQAEDLAVYYCQQHFSSPRTFGGGTKVEIKRTVAAPSVFIFPPSDEQLKSGTASVVCLLNNFYPREAKVQWKVDNALQSGNSQESVTEQDSKDSTYSLSSTLTLSKADYEKHKVYACEVTHQGLSSPVTKSFNRGEC heavy: not shown	binds		
ch10A8-SPDB-DM4 (antibody, human IgG1, kappa, DM4 linked through the e-amino group of lysine using the SPDB linker (sites not given)) light: DIVMTQSHKFMSTSVRDRVSITCKASQDVSTAVAWYQQKPGQSPKLLIYSASYRYTGVPDRFTGSGSGTDFTFTISSVQAEDLAVYYCQQHFSSPRTFGGGTKVEIKRTVAAPSVFIFPPSDEQLKSGTASVVCLLNNFYPREAKVQWKVDNALQSGNSQESVTEQDSKDSTYSLSSTLTLSKADYEKHKVYACEVTHQGLSSPVTKSFNRGEC heavy: not shown	binds		
chimeric anti-human FcRH5 antibody 10A8 (ch10A8) (antibody, human IgG1, kappa, Murine 10A8 variable domains with human kappa and human IgG1 constant domains; also called chMAFcRH5 (10A8); chFcRH5 (10A8)) light: DIVMTQSHKFMSTSVRDRVSITCKASQDVSTAVAWYQQKPGQSPKLLIYSASYRYTGVPDRFTGSGSGTDFTFTISSVQAEDLAVYYCQQHFSSPRTFGGGTKVEIKRTVAAPSVFIFPPSDEQLKSGTASVVCLLNNFYPREAKVQWKVDNALQSGNSQESVTEQDSKDSTYSLSSTLTLSKADYEKHKVYACEVTHQGLSSPVTKSFNRGEC heavy: not shown		0.98	
thio-hu10A8-HC(A118C)-MC-vc-PAB-MMAE (antibody, human IgG1, kappa, MC-vc-PAB-MMAE on the engineered Cys 118 (EU numbering), Antibody-drug conjugate (thioMab drug conjugate); also called thio-HC(A118C)-hu-anti-FcRH5 (10A8)-MC-vc-PAB-MMAE; Thio-HC(A118C)-hu-anti-FcRH5 (10A8)-vc-E) heavy: not shown light: DIQMTQSPSSLSASVGDRVTITCKASQDVSTAVAWYQQKPGKAPKLLIYSASYRYTGVPSRFSGSGSGTDFTLTISSLQPEDFATYYCQQHFSSPRTFGQGTKVEIKRTVAAPSVFIFPPSDEQLKSGTASVVCLLNNFYPREAKVQWKVDNALQSGNSQESVTEQDSKDSTYSLSSTLTLSKADYEKHKVYACEVTHQGLSSPVTKSFNRGEC	binds		
thio-hu10A8 v1-HC(A118C) (antibody, human IgG1, kappa, Cysteine engineered humanized IgG1 (thioMab), unconjugated; also called thio.hu10A8.HC; Thio-hu10A8-HC(A118C)) heavy: not shown light: DIQMTQSPSSLSASVGDRVTITCKASQDVSTAVAWYQQKPGKAPKLLIYSASYRYTGVPSRFSGSGSGTDFTLTISSLQPEDFATYYCQQHFSSPRTFGQGTKVEIKRTVAAPSVFIFPPSDEQLKSGTASVVCLLNNFYPREAKVQWKVDNALQSGNSQESVTEQDSKDSTYSLSSTLTLSKADYEKHKVYACEVTHQGLSSPVTKSFNRGEC		3.12	
thio-hu10A8 v1-LC(V205C) (antibody, human IgG1, kappa, Cysteine engineered humanized IgG1 (thioMab), unconjugated; also called thio.hu10A8.LC; thio-hu10A8-LC(V205C)) heavy: not shown light: DIQMTQSPSSLSASVGDRVTITCKASQDVSTAVAWYQQKPGKAPKLLIYSASYRYTGVPSRFSGSGSGTDFTLTISSLQPEDFATYYCQQHFSSPRTFGQGTKVEIKRTVAAPSVFIFPPSDEQLKSGTASVVCLLNNFYPREAKVQWKVDNALQSGNSQESVTEQDSKDSTYSLSSTLTLSKADYEKHKVYACEVTHQGLSSPCTKSFNRGEC		2.63	
thio-hu10A8-LC(V205C)-MC-vc-PAB-MMAE (antibody, human IgG1, kappa, MC-vc-PAB-MMAE on the engineered Cys 205 (Kabat numbering), Antibody-drug conjugate (thioMab drug conjugate); also called Thio-LC(L205C)-hu-anti-FcRH5 (10A8)-vc-E) heavy: not shown light: DIQMTQSPSSLSASVGDRVTITCKASQDVSTAVAWYQQKPGKAPKLLIYSASYRYTGVPSRFSGSGSGTDFTLTISSLQPEDFATYYCQQHFSSPRTFGQGTKVEIKRTVAAPSVFIFPPSDEQLKSGTASVVCLLNNFYPREAKVQWKVDNALQSGNSQESVTEQDSKDSTYSLSSTLTLSKADYEKHKVYACEVTHQGLSSPCTKSFNRGEC	binds		
murine anti-FcRH5 (10A8) monoclonal antibody (antibody, V domains shown, Murine hybridoma IgG; also called 10A8.1.1; mu10A8) VL: DIVMTQSHKFMSTSVRDRVSITCKASQDVSTAVAWYQQKPGQSPKLLIYSASYRYTGVPDRFTGSGSGTDFTFTISSVQAEDLAVYYCQQHFSSPRTFGGGTKVEIKR VH: EVQLVESGGGLVKPGGSLKISCAASGFTFSSYAVSWVRQTPEKRLEWVATISSGGSLTFYLDSVRGRFTISRDNAKNTLYLQMSSLRSEDTAMYYCARPIPDYYALDYWGQGTSVTVSS		2.74	Kd [3]: 0.44 nM
cysteine engineered chimeric anti-FcRH5 10A8, heavy chain A118C (thio-ch10A8.HC) (antibody, human IgG1, kappa, name in EU numbering, also called Thio-ch10A8-HC(A118C)) light: DIVMTQSHKFMSTSVRDRVSITCKASQDVSTAVAWYQQKPGQSPKLLIYSASYRYTGVPDRFTGSGSGTDFTFTISSVQAEDLAVYYCQQHFSSPRTFGGGTKVEIKRTVAAPSVFIFPPSDEQLKSGTASVVCLLNNFYPREAKVQWKVDNALQSGNSQESVTEQDSKDSTYSLSSTLTLSKADYEKHKVYACEVTHQGLSSPVTKSFNRGEC heavy: not shown		1.57	Kd [4]: 0.85 nM
humanized anti-FcRH5 antibody 10A8 version 1 (hu10A8 v1) (antibody, human IgG1, V domains shown, Full-length human IgG1 with human kappa constant domain; also called 10A8-graft; hu10A8 graft) VL: DIQMTQSPSSLSASVGDRVTITCKASQDVSTAVAWYQQKPGKAPKLLIYSASYRYTGVPSRFSGSGSGTDFTLTISSLQPEDFATYYCQQHFSSPRTFGQGTKVEIKR VH: EVQLVESGGGLVQPGGSLRLSCAASGFTFSSYAVSWVRQAPGKGLEWVATISSGGSLTFYLDSVRGRFTISRDNSKNTLYLQMNSLRAEDTAVYYCARPIPDYYALDYWGQGTLVTVSS		3.04	Kd [4]: 1.44 nM
